Data: US10081667B2, “Composition and method for therapeutic agent delivery during pregnancy” (University of Mississippi Medical Center, priority 2013, dated 2018)

Assays:
[1] = system: endothelial cells (HUVECs); experiment: Cellular internalization by fluorescence microscopy, HUVECs; format: cell-based, human; details: 1 h exposure, imaged 24 h
Protocol: (§1) FIG. 18 includes images showing the cellular internalization of SynB1-ELP delivered NOX peptide. Rhodamine-labeled SynB1-ELP-NOX was exposed to cells for 1 h, cells were washed, fresh media was returned, and images were collected 24 h after initial exposure.
(§2) It is confirmed that the SynB1-ELP-NOX polypeptide was internalized by cells. Both endothelial cells (HUVECs) and chorionic cells (BeWo choriocarcinoma cells) were exposed to fluorescently labeled SynB1-ELP-NOX for 1 h. The cells were then washed and given fresh media for 24 h.

[2] = system: BeWo choriocarcinoma cells; experiment: Cellular internalization by fluorescence microscopy, BeWo cells; format: cell-based; details: 1 h exposure, imaged 24 h
Protocol: as §1, §2

[3] = system: placental chorionic villous explants; experiment: ROS production in placental chorionic villous explants, dihydroethidium (DHE) assay; format: cell-based, rat; details: 20 or 50 μM, 1% O2, 48 h
Protocol: FIG. 19 includes a graph showing inhibition of reactive oxygen species production of placental villous explants. Villous explants were dissected from rat placentas at day 19 of gestation. Explants were grown ex vivo on a bed of Matrigel in cell culture medium. 24 h after equilibration of explants, media was replaced with media plus SynB1-ELP or SynB1-ELP-NOX, and explants were incubated at 37° C. in a 6% or 1% O2 environment for 48 h. ROS was detected by incubation with 5 μM dihydroethdium for 1 hour, and fluorescence was measured using a florescence plate reader. The assay was performed in triplicate, and data represent the mean±s.e. of three independent experiments each performed with 4 explants per treatment group. *p<0.01, one way ANOVA with post-hoc Bonferonni multiple comparison.
Chorionic villous explants were cut on GD19 and cultured ex vivo on Matrigel coated wells with complete cell culture medium. After equilibration, culture medium was replaced with medium containing SynB1-ELP-NOX or the SynB1-ELP control polypeptides at 20 or 50 μM, and explants were incubated at 6% O2 (representing a healthy placenta) or 1% O2 (representing a preeclamptic placenta). After 48 h exposure to hypoxia, detection of ROS was performed using the dihydroethidium (DHE) assay.

B1: SynB1-ELP-NOX: SynB1 peptide fused to the N-terminus of ELP (SEQ ID NO: 4), NOX peptide at the C-terminus; SEQ ID NO: 16 (protein)
chain: MRGGRLSYSRRRFSTSTGRGCGPGVGVPGAGVPGGGVPGAGVPGGGVPGAGVPGGGVPGAGVPGGGVPGAGVPGGGVPGAGVPGGGVPGAGVPGGGVPGAGVPGVGVPGAGVPGGGVPGAGVPGGGVPGAGVPGGGVPGAGVPGGGVPGAGVPGGGVPGAGVPGGGVPGAGVPGGGVPGAGVPGVGVPGAGVPGGGVPGAGVPGGGVPGAGVPGGGVPGAGVPGGGVPGAGVPGGGVPGAGVPGGGVPGAGVPGGGVPGAGVPGVGVPGAGVPGGGVPGAGVPGGGVPGAGVPGGGVPGAGVPGGGVPGAGVPGGGVPGAGVPGGGVPGAGVPGGGVPGAGVPGVGVPGAGVPGGGVPGAGVPGGGVPGAGVPGGGVPGAGVPGGGVPGAGVPGGGVPGAGVPGGGVPGAGVPGGGVPGAGVPGVGVPGAGVPGGGVPGAGVPGGGVPGAGVPGGGVPGAGVPGGGVPGAGVPGGGVPGAGVPGGGVPGAGVPGGGVPGAGVPGVGVPGAGVPGGGVPGAGVPGGGVPGAGVPGGGVPGAGVPGGGVPGAGVPGGGVPGAGVPGGGVPGAGVPGGGVPGAGVPGVGVPGAGVPGGGVPGAGVPGGGVPGAGVPGGGVPGAGVPGGGVPGAGVPGGGVPGAGVPGGGVPGAGVPGGGVPGAGVPGVGVPGAGVPGGGVPGAGVPGGGVPGAGVPGGGVPGAGVPGGGVPGAGVPGGGVPGAGVPGGGVPGAGVPGGGVPGAGVPGVGVPGAGVPGGGVPGAGVPGGGVPGAGVPGGGVPGAGVPGGGVPGAGVPGGGVPGAGVPGGGVPGAGVPGGGVPGAGVPGWPGSGGCSTRIRRQL
modifications: synthetic SynB1-ELP-NOX sequence
With B1 the “internalization in HUVECs” value [1] was “detectable in a punctate cytoplasmic distribution in both cell lines”, the “internalization in BeWo cells” value [2] was “detectable in a punctate cytoplasmic distribution in both cell lines” and the “ROS production of hypoxic explants” value [3] was “inhibited this ROS production”.
